Here are results for 20 substances from publication PMC11284795.

Experiment [1] has as its target human beta-klotho (KLB) on HEK293 cells (human) (UniProt Q86Z14).
For experiment [2], the target named is human serum albumin (HSA) (human) (UniProt P02768).
Experiment [3] has as its target human beta-klotho (KLB) on HEK293 cells (human) (UniProt Q86Z14). This is another data set of the same source.
For experiment [4], the target named is FGFR4/KLB: ectodomain of human FGFR4 fused to Fc, with human beta-klotho (human) (UniProt P22455).

Sequence of FGF21 analog 23 (-1A, 121Q, 168L, 180C; C20 fatty diacid on 180C) (Q9NSA1 other isoform, or with tags, fused parts or gaps): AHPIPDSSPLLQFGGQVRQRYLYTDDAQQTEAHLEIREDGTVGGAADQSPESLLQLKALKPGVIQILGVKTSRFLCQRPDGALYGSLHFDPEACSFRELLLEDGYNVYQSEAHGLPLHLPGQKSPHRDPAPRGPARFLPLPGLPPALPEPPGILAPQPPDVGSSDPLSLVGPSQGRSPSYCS
Sequence of FGF21 analog 5 (-1A, 71C, 121Q, 168L; C18 fatty diacid on 71C) (Q9NSA1 other isoform, or with tags, fused parts or gaps): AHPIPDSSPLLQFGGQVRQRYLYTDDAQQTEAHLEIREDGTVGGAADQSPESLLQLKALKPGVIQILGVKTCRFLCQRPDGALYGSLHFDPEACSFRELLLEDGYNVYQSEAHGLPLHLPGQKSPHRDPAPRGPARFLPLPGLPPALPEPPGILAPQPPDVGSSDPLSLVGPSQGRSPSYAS
Sequence of FGF21 analog 6 (-1A, 121Q, 167C, 168L; cysteamine on 167C) (Q9NSA1 other isoform, or with tags, fused parts or gaps): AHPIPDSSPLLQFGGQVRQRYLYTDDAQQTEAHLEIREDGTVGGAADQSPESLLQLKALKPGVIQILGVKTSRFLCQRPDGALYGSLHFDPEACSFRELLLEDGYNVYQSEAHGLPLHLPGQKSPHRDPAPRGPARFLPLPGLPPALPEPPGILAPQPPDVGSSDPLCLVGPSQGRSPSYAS
Sequence of FGF21 analog 3 (-1A, 121Q) (Q9NSA1 28-209 N149Q): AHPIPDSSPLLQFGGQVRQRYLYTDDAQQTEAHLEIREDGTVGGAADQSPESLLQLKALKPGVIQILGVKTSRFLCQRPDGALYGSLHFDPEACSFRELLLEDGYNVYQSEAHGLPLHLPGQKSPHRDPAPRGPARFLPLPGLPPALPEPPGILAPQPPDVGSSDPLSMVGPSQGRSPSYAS
Sequence of FGF21 analog 13 (-1A, 121Q, 168L, 178C; cysteamine on 178C) (Q9NSA1 other isoform, or with tags, fused parts or gaps): as the sequence (Q9NSA1 28-209 N149Q) above, with M169L, S179C counted along it
Sequence of FGF21 analog 14 (-1A, 121Q, 168L, 179C; cysteamine on 179C) (Q9NSA1 other isoform, or with tags, fused parts or gaps): as the sequence (Q9NSA1 28-209 N149Q) above, with M169L, Y180C counted along it
Sequence of FGF21 analog 2 (-1A) (Q9NSA1 28-209): as the sequence (Q9NSA1 28-209 N149Q) above, with Q122N counted along it
Sequence of FGF21 analog 7 (-1A, 121Q, 168L, 170C; cysteamine on 170C) (Q9NSA1 other isoform, or with tags, fused parts or gaps): as the sequence (Q9NSA1 28-209 N149Q) above, with M169L, G171C counted along it
Sequence of FGF21 analog 12 (-1A, 121Q, 168L, 176C; cysteamine on 176C) (Q9NSA1 other isoform, or with tags, fused parts or gaps): as the sequence (Q9NSA1 28-209 N149Q) above, with M169L, S177C counted along it
Sequence of FGF21 analog 9 (-1A, 121Q, 168L, 172C; cysteamine on 172C) (Q9NSA1 other isoform, or with tags, fused parts or gaps): as the sequence (Q9NSA1 28-209 N149Q) above, with M169L, S173C counted along it
Sequence of FGF21 analog 8 (-1A, 121Q, 168L, 171C; cysteamine on 171C) (Q9NSA1 other isoform, or with tags, fused parts or gaps): as the sequence (Q9NSA1 28-209 N149Q) above, with M169L, P172C counted along it
Sequence of FGF21 (0) (Q9NSA1 29-209): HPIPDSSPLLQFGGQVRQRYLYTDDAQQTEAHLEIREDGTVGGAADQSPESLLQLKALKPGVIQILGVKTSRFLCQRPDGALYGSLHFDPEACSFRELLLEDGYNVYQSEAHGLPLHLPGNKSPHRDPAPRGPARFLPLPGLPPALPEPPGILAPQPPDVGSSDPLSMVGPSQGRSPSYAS
Sequence of FGF21 analog 10 (-1A, 121Q, 168L, 174C; C18 fatty diacid on 174C) (Q9NSA1 other isoform, or with tags, fused parts or gaps): as the sequence (Q9NSA1 28-209 N149Q) above, with M169L, G175C counted along it
Sequence of FGF21 analog 11 (-1A, 121Q, 168L, 174C; cysteamine on 174C) (Q9NSA1 other isoform, or with tags, fused parts or gaps): as the sequence (Q9NSA1 28-209 N149Q) above, with M169L, G175C counted along it
Sequence of cysteamine protected Ala[Gln121, Leu168, Cys180]FGF21 (16) (Q9NSA1 other isoform, or with tags, fused parts or gaps): as the sequence (Q9NSA1 28-209 N149Q) above, with M169L, A181C counted along it
Sequence of Met-FGF19 (25) (O95750 other isoform, or with tags, fused parts or gaps): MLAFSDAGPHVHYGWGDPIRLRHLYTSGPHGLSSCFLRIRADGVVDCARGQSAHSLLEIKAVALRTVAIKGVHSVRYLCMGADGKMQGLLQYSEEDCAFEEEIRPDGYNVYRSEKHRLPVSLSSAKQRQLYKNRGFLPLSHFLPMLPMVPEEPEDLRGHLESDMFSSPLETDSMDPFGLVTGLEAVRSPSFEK
Sequence of FGF21 analog 19 (-1A, 121Q, 168L, 181C; cysteamine on 181C) (Q9NSA1 other isoform, or with tags, fused parts or gaps): as the sequence (Q9NSA1 28-209 N149Q) above, with M169L, S182C counted along it

Regarding “FGF21 (0) (from UniProt Q9NSA1 29-209) (ligand)”, the potency (EC50) of ERK phosphorylation in HEK293 cells transfected with human KLB, without HSA in experiment [1] turned out to be 1 nM.

“FGF21 analog 2 (-1A) (from UniProt Q9NSA1 29-209) (ligand)” yielded a potency (EC50) of ERK phosphorylation in HEK293 cells transfected with human KLB, without HSA in experiment [1] of 1.3 nM.

“FGF21 analog 3 (-1A, 121Q) (from UniProt Q9NSA1 29-209) (ligand)” displayed a potency (EC50) of ERK phosphorylation in HEK293 cells transfected with human KLB, without HSA in experiment [1] of 1 nM.

“FGF21 analog 5 (-1A, 71C, 121Q, 168L; C18 fatty diacid on 71C) (from UniProt Q9NSA1 29-209) (ligand)”: the potency (EC50) of ERK phosphorylation in HEK293 cells transfected with human KLB, without HSA in experiment [1] amounted to 4.8 nM.

In experiment [1], “FGF21 analog 6 (-1A, 121Q, 167C, 168L; cysteamine on 167C) (from UniProt Q9NSA1 29-209) (ligand)” came in with a potency (EC50) of ERK phosphorylation in HEK293 cells transfected with human KLB, without HSA of 1.4 nM.

As for “FGF21 analog 7 (-1A, 121Q, 168L, 170C; cysteamine on 170C) (from UniProt Q9NSA1 29-209) (ligand)”, the potency (EC50) of ERK phosphorylation in HEK293 cells transfected with human KLB, without HSA in experiment [1] amounted to 3.4 nM.

The substance “FGF21 analog 8 (-1A, 121Q, 168L, 171C; cysteamine on 171C) (from UniProt Q9NSA1 29-209) (ligand)” returned a potency (EC50) of ERK phosphorylation in HEK293 cells transfected with human KLB, without HSA in experiment [1] of 2.2 nM.

Regarding “FGF21 analog 9 (-1A, 121Q, 168L, 172C; cysteamine on 172C) (from UniProt Q9NSA1 29-209) (ligand)”, the potency (EC50) of ERK phosphorylation in HEK293 cells transfected with human KLB, without HSA in experiment [1] was found to be 3.3 nM.

For the substance “FGF21 analog 10 (-1A, 121Q, 168L, 174C; C18 fatty diacid on 174C) (from UniProt Q9NSA1 29-209) (ligand)”, the potency (EC50) of ERK phosphorylation in HEK293 cells transfected with human KLB, without HSA in experiment [1] stood at 1.5 nM.

With “FGF21 analog 11 (-1A, 121Q, 168L, 174C; cysteamine on 174C) (from UniProt Q9NSA1 29-209) (ligand)”, the potency (EC50) of ERK phosphorylation in HEK293 cells transfected with human KLB, without HSA in experiment [1] came to 6.1 nM.

Consider “FGF21 analog 12 (-1A, 121Q, 168L, 176C; cysteamine on 176C) (from UniProt Q9NSA1 29-209) (ligand)”, for which the potency (EC50) of ERK phosphorylation in HEK293 cells transfected with human KLB, without HSA in experiment [1] was 160 nM.

“FGF21 analog 13 (-1A, 121Q, 168L, 178C; cysteamine on 178C) (from UniProt Q9NSA1 29-209) (ligand)” had a potency (EC50) of ERK phosphorylation in HEK293 cells transfected with human KLB, without HSA in experiment [1] of 90 nM.

The substance “FGF21 analog 14 (-1A, 121Q, 168L, 179C; cysteamine on 179C) (from UniProt Q9NSA1 29-209) (ligand)” displayed a potency (EC50) of ERK phosphorylation in HEK293 cells transfected with human KLB, without HSA in experiment [1] of 67 nM.

In experiment [1], “FGF21 analog 19 (-1A, 121Q, 168L, 181C; cysteamine on 181C) (from UniProt Q9NSA1 29-209) (ligand)” had a potency (EC50) of ERK phosphorylation in HEK293 cells transfected with human KLB, without HSA of 24 nM.

Take “FGF21 analog 20 (-1A, 121Q, 168L, 180C; C12 fatty diacid on 180C) (from UniProt Q9NSA1 29-209) (ligand)”: the potency (EC50) of ERK phosphorylation in HEK293/human KLB cells with 0.1 and 1.0% HSA: 3.7 and 5.2 nM (5.8 nM without HSA); no HSA-dependent reduction of potency in experiment [2] amounted to 5.2 nM. In experiment [3], this substance came in with a potency (EC50) of ERK phosphorylation in HEK293 cells transfected with human KLB, 0% HSA of 5.8 nM.

Regarding “FGF21 analog 21 (-1A, 121Q, 168L, 180C; C14 fatty diacid on 180C) (from UniProt Q9NSA1 29-209) (ligand)”, the potency (EC50) of ERK phosphorylation in HEK293/human KLB cells with 0.1, 1.0 and 1.5% HSA: 4.0, 5.8 and 8.6 nM (5.2 nM without HSA); no HSA-dependent reduction of potency in experiment [2] was found to be 8.6 nM. Further, the potency (EC50) of ERK phosphorylation in HEK293 cells transfected with human KLB, 0% HSA in experiment [3] is 5.2 nM.

In experiment [2], “FGF21 analog 22: Ala[Gln121, Leu168, Cys180]FGF21 with a C16 fatty diacid side chain on 180C (from UniProt Q9NSA1 29-209) (ligand)” had a potency (EC50) of ERK phosphorylation in HEK293/human KLB cells with 0.1, 1.0 and 1.5% HSA: 4.2, 52 and 92 nM (3.5 nM without HSA) of 92 nM. Moreover, in experiment [3], the potency (EC50) of ERK phosphorylation in HEK293 cells transfected with human KLB, 0% HSA worked out at 3.5 nM.

On to “FGF21 analog 23 (-1A, 121Q, 168L, 180C; C20 fatty diacid on 180C) (from UniProt Q9NSA1 29-209) (ligand)”, for which the potency (EC50) of ERK phosphorylation in HEK293/human KLB cells with 0.1 and 1.5% HSA: 47 and 173 nM (3.8 nM without HSA) in experiment [2] was 173 nM. The same substance showed a potency (EC50) of ERK phosphorylation in HEK293 cells transfected with human KLB, 0% HSA in experiment [3] of 3.8 nM.

As for “Met-FGF19 (25) (from UniProt O95750 25-216) (ligand)”, the potency EC50 of ERK phosphorylation in Ba/F3 cells overexpressing human KLB and FGFR4 (chimera with the kinase domain of FGFR1c), 0% HSA in experiment [4] stood at 2.3 nM.

As for “cysteamine protected Ala[Gln121, Leu168, Cys180]FGF21 (16) (from UniProt Q9NSA1 29-209) (ligand)”, the potency (EC50) of ERK phosphorylation in HEK293 cells transfected with human KLB, without HSA (with 0.1 and 1.0% HSA: 1.8 and 2.1 nM, Table 3) in experiment [1] was 2.5 nM.
